System: MS2 coat protein
Assay: apparent KD of MS2 coat protein; higher = weaker reporter binding
Details: Eterna round: R107
Summary of the method: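 The designed RNA switches were transcribed on-chip from Illumina sequencing clusters. In 100 mM Tris-HCl pH 7.5, 80 mM KCl and 4 mM MgCl2, without or with constant ligand, they were titrated with SNAP-549-labelled MS2 coat protein from 0.7 or 1.5 nM to 3 µM in twofold steps. Apparent KD is the per-design median of normalised cluster binding-curve fits.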

[1] = input ligand: theophylline 20 uM
[2] = input ligand: tryptophan 2.4 mM
[3] = input ligand: theophylline 2 mM

Sequence	apparent KD of MS2 coat protein (input ligand: arginine 13.2 mM)	apparent KD of MS2 coat protein [1]	apparent KD of MS2 coat protein [2]	apparent KD of MS2 coat protein [3]	apparent KD of MS2 coat protein (input ligand: none)
UGUAUGUGAUUUGAUACCAGACCAACUGGUAAUACAUGAGGAUCACCCAUGUAGAUUUGGGUCCCUUGGCAGCAAAUCGCAUACU [SSTheo B #23]	45.6 nM	34.1 nM	46.1 nM		
GGAUAGGACACGGCCGCCACUGCGCUAGGAUACUAGAACAUUUCCUCACAUGAGGAUCACCCAUGUAGGACCGGGUGUCCUAUCG	34 nM	76.7 nM		60.4 nM	
UAGUUAGCGGCGGCCGCCACUCGAGAUAUAACAUGAUAUCAUAACAUGAGGAUCACCCAUGUCACGAGGACCGGGCCGAUCUUCA [Same State Typptophan B GF6]	27.9 nM	102 nM	49.4 nM	163 nM	48.5 nM
UCUUGGUCCGCAAGGACCGUGAGUUGCGAUACCAGCACGGUAACGUGCCCUUGGCAGCGCACAUGAGGAUCACCCAUGUGGUGUU [#1 Exclusion - Theophylline A Attempt #15 (HarryS)]	71.6 nM	520 nM	210 nM		
AUUAUCAUGGUCAUUUAUAUUUCGUCAGAUACCAGACUAGAUAUAGUCCCUUGGCAGCUGUUACAUGAGGAUCACCCAUGUUAUU [JR_ExcTheophyA_Sub018]	44.7 nM	70.6 nM	103 nM		
UUCAAAGGGAACGGUGCUGGUAGCAGAGAUACCAGAGUAAUGAUACUCCCUUGGCAGCUCAGUACAUGAGGAUCACCCAUGUAAU [Exclusion Theophylline A GF24]	13.8 nM	20.2 nM	15.1 nM	15.9 nM	13.5 nM
CCCAUACAUGAGGAUCACCCAUGUGUUGAUACCAGCAUAUGUAGAUGCCCUUGGCAGCAAGCUUGGGUCACUGGAAAACAUCUAA [theeternabot_sameState_MS2_Theo_A_38]	23.8 nM	27.4 nM	22.6 nM		
ACACCAUACAUGAGGAUCACCCAUGUUACACGAGGACCGGUACGGCCGCCACUCGAAUUCAGGAAACCUCGGAUAAUAUUGUGAA [JR_SS-TryptA_Sub001]	22.3 nM	50.1 nM		32.4 nM	
GCGAUGGAGCGAAGGAGCGUGCUGGUACAUGAGGAUCACCCAUGUGAGUCGCAUCGCUAAGCACAGGUAGGUCGCGCUCCAUCGC [EAB NP+V+V2 #10]	48.6 nM	85 nM	66.5 nM	83 nM	58.4 nM
GGUGGCGGGACUGAUACCAGCCACCACCGAUAGACCACAUGAGGAUCACCCAUGUUGGGUGGCCCUUGGCAGCAGUCUUGCGGCG [#1 Same State - Theophylline B Attempt #15 (HarryS)]	85.5 nM	491 nM	1290 nM	81.5 nM	527 nM
AAUGGCCGUACCGGAAGGGUGAUCCUCAAACGAGGACCGGUACGGCCGCCACUCGAUAACAUGAGGAUCACCCAUGUAAUAAUAA [|T'-M'-Trp-Ms2|_Design13]	85 nM	481 nM		677 nM	
GGAUAGAUAGGAGAUACCAGAUACAUCAACAUGAGGAUCACCCAUGUGUCUGCACUAAGUGUCCCUUGGCAGCUCGGAGAUCUGA [#16 Same State - Theophylline B]	24 nM	33.7 nM	32.4 nM		
GGACUAACCAGAAGGAGCGGCACAAGCAGAAACUGCAAUCCUCCGCACGAGGAUCACCCGUGUCAGGUAGGUCGCUGGUUAGUCG [ArgBX 28]	49.2 nM	74.6 nM	63.7 nM	80.4 nM	56.8 nM
GGAUAGGACACGGCCGCCACUAGCUAGGAUACUAGCAACAUUUCCUCGCUUGAGGAUCACCCAAGUAGGACCGGGUGUCCUAUCG	302 nM	446 nM	482 nM	476 nM	560 nM
UGAGAUCCUCAUGAUACCAGUGUACUACAUGAGGAUCACCCAUGUAGCAACAUCUGUAGACACCCUUGGCAGCAUGAGACCACGU [Theo B SS t5]	17.5 nM	35.2 nM	15.6 nM		
GACCCAUGAGUUGGAAAAGCUCAUGGGUCGCGAGGACCGGUACGGCCGCCACUCGGCUGUACAUGAGGAUCACCCAUGUCAGGGU [#1 Same State - Tryptophan A Attempt #25 (HarryS)]	96.9 nM	614 nM	711 nM	573 nM	125 nM
AGCACUGUGACGGCCGCCACUAUAUUAGGGUGGUCAGGUUCAUAAAUACAUGAGGAUCACCCAUGUAGGACCGGGUCUCAGUGCA [Omei Trp Exc B A v3]	11.1 nM	13.8 nM		12.3 nM	
AAUAAUAAGGCGGCCGCCACUACACAUGAGGAUCACCCAUGUCUCGCGGGCUUGCGUUGGGAUUGUAGGACCGGGCCAAUAAUAA [Exclusion - Tryptophan B (Freestyle 11)]	15.2 nM	35.7 nM		30.4 nM	
GCUCACAUGAGGAUCACCCAUGUACGUCCGCGAGGACCGGUACGGCCGCCACUCGUGUUAGCUUCAAACUUGUUAGUGUUAAACA [Atleerge]	31.3 nM	53.4 nM		68.4 nM	

Sequence	apparent KD of MS2 coat protein (input ligand: arginine 13.2 mM)	apparent KD of MS2 coat protein [1]	apparent KD of MS2 coat protein [2]	apparent KD of MS2 coat protein [3]	apparent KD of MS2 coat protein (input ligand: none)
GGUACAUGAGGAUCACCCAUGUAUUAGUGCCGAGGACCGGUACGGCCGCCACUCGCUUCACAUGAGGAUCACCCAUGUGUCACAG [SSTA DOUBLE!!! :-D #13]	22.4 nM	38.4 nM		39.7 nM	
UGUAUGGACUGAAGGAGCGGGUUGAUAAUCUGAGGAUCACCCAGGUAAAAGGCGAAAGCCGCCCAGGUAGGUCGCAGUCCAUACU	20.5 nM	36.1 nM	33.4 nM	31.5 nM	25.3 nM
GGCGCUGCGUCGGCCGCCACUAGCGGGUAAUGGGUGUACAUGAGGAUCACCCAUGUAAUAUGGCCUAGGACCGGGACGUGGCGCC [Moose]	259 nM	415 nM	620 nM	465 nM	427 nM
AGUAGUUGACAAAAGUCAGCUACAAUUGAAGGAGCGGGAUCCUUCCCAGGUAGGUCGCAAUAACAUGAGGAUCACCCAUGUCAAA [ArgAS 4 #BothOrNeither #OpenEnded]	15.9 nM	26.6 nM	20.3 nM	20.4 nM	27.7 nM
ACGUUUUAGUCGGCCGCCACUGUUUUCAUGUUCAACAUGAGGAUCACCCAUGUACCUUUUUUUAUCAGGACCGGGACGUAAUAGA [JR_SSTryptoB_Sub004]	47.7 nM	102 nM		77.3 nM	
AGCGUAUAGACGGAUACCAGCGCCGAUUAACAUGAGGAUCACCCAUGUAGUGUGGGUGGACGCCCUUGGCAGCCGAGUAUAGGUA [#07 Exclusion-TheophyllineB]	391 nM	115 nM	221 nM	360 nM	89.7 nM
UCGCCCAGAAAGGAUUCCUGGGAUAUGGAAGGAGCGCUGAUGCCAGCAGGUAGGUCGCCAACGGACAUGAGGAUCACCCAUGUAC [Same State - Arginine A (Freestyle 7)]	15.4 nM	25.7 nM	18 nM	21.7 nM	17.3 nM
CCUCAAUAGACGGCCGCCACUGAAACAUGCGGAUACAUGAGGAUCACCCAUGUGGGUGUGUUACGCAGGACCGGGUCAAGACCCG [#12 Same State - Tryptophan B]	115 nM	316 nM		583 nM	
CUAUCCUUGCCGGAUGAAGGACACUGAGAAGGAGCGCGGUAAUCCGCAGGUAGGUCGCUCAGGAGUACAUGAGGAUCACCCAUGU [Xeonrave]	16.1 nM	26.9 nM	20.7 nM	23.7 nM	20.8 nM
ACGAGACGUCUGGAUACCAGCCCAGCGAUAAACAUGAGGAUCACCCAUGUCAAACCACCCGGCCCUUGGCAGCCACGUACCUCAC [theeternabot_sameState_MS2_Theo_B_10]	15.9 nM	19.1 nM	14.9 nM		
GACAUGAGGAUCACCCAUGUACCGCGAGAAGGAGCGCGGAUAAACGCAGGUAGGUCGCUCGUGGGCUUAUAUUCAAUUGUAAGCU [Usence]	24.8 nM	43.1 nM	30.4 nM	44.6 nM	33.2 nM
ACGAACGCACCUGAGGAUCACCCGGGUGAUACCAGCCUGGAAACAGGCCCUUGGCAGCACCUAAAAUAAAGGUAACGUUCGAAUA [TheoAX9 #MicroSwitchBubble #AlternativeMS2]	116 nM	234 nM	303 nM	590 nM	335 nM
AAUGUAAUAGUCGUACUCUUACACUGAGAAGGAGCGCGAAAGUUCGCAGGUAGGUCGCUCAGUUAUACAUGAGGAUCACCCAUGU [Bebemaata]	24.1 nM	28.3 nM	24.1 nM	27.9 nM	24.8 nM
UGACAUUGCUCAGAUACCAGACAUGAGCAUCAGCCAUGUACCAAGAGUACAUGUUAAAGUGUCCCUUGGCAGCUGAGCAAUGUCU [Mod of Eli's TheoBX5 #AlternateMS2 v3]	56.4 nM	193 nM	72 nM	603 nM	70.9 nM
UCUGCCGCGGCUCCGAUCCUCCUGUAGUUCCGAGGACCGGUACGGCCGCCACUCGUAGCACAUGAGGAUCACCCAUGUCUUGCGG [Tiqurabira]	12.1 nM	17.5 nM		13 nM	
AACAUGAGGAUCACCCAUGUACCUUUCGAUCGAGGACCGGUACGGCCGCCACUCGAAAACAUGAGGAUCACCCAUGUUCAACAGG [Tryp A SS t3]	58.7 nM	128 nM		154 nM	
GUUAUGAUAAGAAGGAGCGUCGAAAAUGGGUAAACAUGAGGAUCACCCAUGUAAAGGGAACGACAGGUAGGUCGCUUAUUAUAAC [AstromonsSSArgB#20]	86.8 nM	270 nM	154 nM	161 nM	190 nM
CUCCCGUGGUCGGCCGCCACUGGAGGCCUCGCGCGACAUGAGGAUCACCCAUGUUGGCCCGGCUUCAGGACCGGGAUCGCGUGAG [#1 Same State - Tryptophan B Attempt #8 (HarryS)]	12.2 nM	16.2 nM		12.6 nM	

Reference: the supplement of paper PMC9170038
